In publication PMC6378094:

Substrate: NC(=O)C[C@H](N)C(=O)O
Experiment: purified protein
Conditions: 50 mM Tris-HCl, pH 8.6, 37 °C

Row | Protein | Km [µM] | kcat [s⁻¹] | kcat/Km [M⁻¹ s⁻¹]
1 | ASPase A1 (Bacillus licheniformis) (protein) MNKKVALITTGGTIASRKTESGRLAAGAISGPELAEMCSLPEDVQIDVYPAFQLPSMHITFEHLLELKQTIERVFQNGGYDGAVVTHGTDTLEETAYFLDLTIEDERPVVVTGSQRAPEQQGTDAYTNIRHAVYTACSPDIKGAGTVVVFNERIFNARYVKKVHASNLQGFDVFGFGYLGIIDNDKVYVYQKPLKRDVHQLQRPLPAVDIVKCYLDGDGKFIRAAVREGVEGIVLEGVGRGQVPPNMMADIEQALNQGVYIVITTSAEEGEVYTTYDYAGSSYDLAKKGVILGKDYDSKKARMKLAVLLASYKEGLKDKFCY | 10.30 | 24 | 2.33e+06
2 | ASPase E (Leunase) (Escherichia coli K-12) (protein) LPNITILATGGTIAGGGDSATKSNYTVGKVGVENLVNAVPQLKDIANVKGEQVVNIGSQDMNDNVWLTLAKKINTDCDKTDGFVITHGTDTMEETAYFLDLTVKCDKPVVMVGAMRPSTSMSADGPFNLYNAVVTAADKASANRGVLVVMNDTVLDGRDVTKTNTTDVATFKSVNYGPLGYIHNGKIDYQRTPARKHTSDTPFDVSKLNELPKVGIVYNYANASDLPAKALVDAGYDGIVSAGVGNGNLYKSVFDTLATAAKTGTAVVRSSRVPTGATTQDAEVDDAKYGFVASGTLNPQKARVLLQLALTQTKDPQQIQQIFNQY | 5.788 | 7.73 | 1.34e+06
